According to patent publication US9944688B2, “Non-peptidyl polymer-insulin multimer and method for producing the same” (HANMI SCIENCE CO., LTD., priority 2011, dated 2018):

Tests used:
[1] = test system: murine fibroblast 3T3-L1 differentiated into adipocyte; assay: In vitro efficacy test: residual sugar in media of differentiated 3T3-L1 adipocytes; format: cell-based; details: for EC50: differentiated 3T3-L1 adipocytes, 37° C. for 24 h, residual sugar by D-Glucose assay kit
Experimental: In order to differentiate murine fibroblast 3T3-L1 into adipocyte, the cell was inoculated in a 48-well plate containing a 10% FBS/DMEM media containing dexamethasone, IBMX, and insulin at a cell density of 1.0×10^5 per well. The differentiated cells were washed with DPBS three times, and cultured in a serum-free DMEM for 4 h. […] After cultivation at 37° C. for 24 h, the residual sugar concentration in the media was measured using a D-Glucose assay kit (Megazyme), and EC50 values were calculated and shown in Table 1.

[2] = Measurement of hydrodynamic volume by size exclusion chromatography; format: physicochemical; details: for Hydrodynamic volume: SEC Superdex 200 10/300 GL, regression line from standard proteins; for Hydrodynamic volume, times larger than monomer: hexamer versus monomer
Experimental: PEG-insulin conjugates in 20 mM HEPES buffer (pH 8.2) were mixed with a cobalt chloride solution to a ratio of cobalt to hexamer of 3:1. To convert divalent cobalt ions into trivalent cobalt ions, hydrogen peroxide corresponding to twice of the total divalent cobalt ions was added, and left at room temperature for 2 h. Thereafter, cobalt PEG-insulin hexamers were isolated by SEC (size exclusion chromatography).
Column: Superdex 200 16/60 prep grade (GE Healthcare)
Buffer: 20 mM HEPES pH 8.2+0.2 M NaCl
Hydrodynamic volume of the PEG-insulin conjugate or the cobalt PEG-insulin hexamer was measured according to the conditions described in Example 4, except that Superdex 200 10/300 GL was used as a column. The regression line was calculated from the elution volume of standard protein. Partition coefficient (Kav) is defined as follows. Kav=(Ve−V0)/(Vt−V0)
Ve represents the elution volume, V0 represents the void volume determined by Blue dextran, and Vt represents the bed volume.

[3] = after subcutaneous injection; time for half of the drug to pass the capillary wall; cited from earlier work
[4] = Comparison of molecular size by size exclusion chromatography in DPBS; format: physicochemical; details: SEC, DPBS buffer
Experimental: Size exclusion chromatography was performed to indirectly predict the molecular size of subcutaneously injected insulin formulation and its size change according to natural dilution (Havelund et al., 2004). The representative commercial long-acting insulin formulations, Levemir and Lantus, were used as a control group to examine the relative molecular size of the cobalt PEG-insulin hexamer. Chromatography was performed according to the conditions described in Example 4, except that DPBS was used as a buffer solution to create subcutaneous environment.

Substance | EC50 [1] | Relative activity ([1]; relative to human native insulin (100)) | Hydrodynamic volume [2] | Subcutaneous half-life, times longer than native insulin hexamer [3] | Dissociation coefficient (Kav) [4] | Elution time [4] | Hydrodynamic volume, times larger than monomer [2]
PEG (5k)-insulin: human native insulin mono-PEGylated with 5 k mPEG-aldehyde at the amino terminus of the B chain | 9.48 ± 2.77 nM | 60% | 60 kDa | – | – | – | –
insulin detemir | – | – | – | 4 times | – | – | –
Cobalt PEG (20k)-insulin hexamer: hexamer of PEG (20k)-insulin conjugates complexed with trivalent cobalt ions | – | – | 1,600 kDa | – | 0.01 | 20.12 min | approximately 10 times
Cobalt PEG (5k)-insulin hexamer: hexamer of PEG (5k)-insulin conjugates complexed with trivalent cobalt ions | – | – | 300 kDa | – | 0.20 | 27.63 min | approximately 5 times
PEG (20k)-insulin: human native insulin mono-PEGylated with 20 k mPEG-aldehyde at the amino terminus of the B chain | 13.6 ± 0.71 nM | – | – | – | – | – | –
